Assay results reported in PMC5672800.

B1: compound 26 (peptide)
peptide: HRFF
HELM: PEPTIDE1{[ac].H.R.[O=C([C@@H](Cc1ccc(I)cc1)N[*:1])[*:2]].F.[am]}$$$$V2.0
SMILES: CC(=O)N[C@@H](Cc1c[nH]cn1)C(=O)N[C@@H](CCCNC(=N)N)C(=O)N[C@H](Cc1ccc(I)cc1)C(=O)N[C@@H](Cc1ccccc1)C(N)=O
B2: compound 25 (peptide)
peptide: RRFF
HELM: PEPTIDE1{[ac].R.R.[O=C([C@@H](Cc1ccc(I)cc1)N[*:1])[*:2]].F.[am]}$$$$V2.0
SMILES: CC(=O)N[C@@H](CCCNC(=N)N)C(=O)N[C@@H](CCCNC(=N)N)C(=O)N[C@H](Cc1ccc(I)cc1)C(=O)N[C@@H](Cc1ccccc1)C(N)=O

Columns and labels:
[1] = target: mouse melanocortin-3 receptor (mouse) (UniProt P33033)
[2] = target: mouse melanocortin-1 receptor (mouse) (UniProt Q01727)
[3] = target: mouse melanocortin-5 receptor (mouse) (UniProt P41149)
[4] = target: mouse melanocortin-3 receptor (mouse) (UniProt P33033); test: radioligand binding
[5] = target: mouse melanocortin-4 receptor (mouse) (UniProt P56450); test: radioligand binding
Chain of mouse melanocortin-4 receptor (mouse) (P56450 whole entry): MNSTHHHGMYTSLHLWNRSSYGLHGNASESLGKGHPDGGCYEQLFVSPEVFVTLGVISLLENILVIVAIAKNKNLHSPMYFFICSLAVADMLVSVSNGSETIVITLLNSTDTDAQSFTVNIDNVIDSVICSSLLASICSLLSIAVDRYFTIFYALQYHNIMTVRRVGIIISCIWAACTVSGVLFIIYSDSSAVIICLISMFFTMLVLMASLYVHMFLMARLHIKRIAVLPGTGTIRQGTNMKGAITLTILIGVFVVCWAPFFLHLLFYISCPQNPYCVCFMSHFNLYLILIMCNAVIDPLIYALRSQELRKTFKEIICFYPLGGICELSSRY

Chain of mouse melanocortin-3 receptor (mouse) (P33033 whole entry): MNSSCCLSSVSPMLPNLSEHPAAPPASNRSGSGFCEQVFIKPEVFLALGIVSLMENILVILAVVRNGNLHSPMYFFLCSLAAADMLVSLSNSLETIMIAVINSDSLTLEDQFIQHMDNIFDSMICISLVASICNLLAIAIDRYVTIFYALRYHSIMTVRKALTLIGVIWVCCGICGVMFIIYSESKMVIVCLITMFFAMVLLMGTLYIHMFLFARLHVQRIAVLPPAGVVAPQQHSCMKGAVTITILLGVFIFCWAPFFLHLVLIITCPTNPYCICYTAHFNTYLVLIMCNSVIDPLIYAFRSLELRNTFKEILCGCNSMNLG
Chain of mouse melanocortin-1 receptor (mouse) (Q01727 whole entry): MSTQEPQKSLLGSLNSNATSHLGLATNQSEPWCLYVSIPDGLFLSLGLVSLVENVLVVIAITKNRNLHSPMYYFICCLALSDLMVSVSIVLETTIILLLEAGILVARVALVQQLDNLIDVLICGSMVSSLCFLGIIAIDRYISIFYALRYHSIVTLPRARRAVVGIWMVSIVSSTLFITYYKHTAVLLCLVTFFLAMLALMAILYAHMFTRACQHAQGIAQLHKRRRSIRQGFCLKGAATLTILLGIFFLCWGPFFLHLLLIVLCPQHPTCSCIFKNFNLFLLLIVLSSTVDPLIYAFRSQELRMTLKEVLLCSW
Chain of mouse melanocortin-5 receptor (mouse) (P41149 whole entry): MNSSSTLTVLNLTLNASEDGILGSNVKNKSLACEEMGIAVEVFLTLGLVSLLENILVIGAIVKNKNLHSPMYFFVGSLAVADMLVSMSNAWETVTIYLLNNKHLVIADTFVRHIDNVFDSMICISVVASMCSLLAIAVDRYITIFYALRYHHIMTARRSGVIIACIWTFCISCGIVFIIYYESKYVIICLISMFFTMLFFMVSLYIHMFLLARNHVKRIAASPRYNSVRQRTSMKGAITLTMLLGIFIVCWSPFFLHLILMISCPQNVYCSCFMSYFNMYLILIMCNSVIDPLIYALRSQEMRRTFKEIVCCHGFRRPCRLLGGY

Row | Binder | cAMP AlphaScreen, HEK293 cells stably expressing the receptor: agonist EC50 [1] [nM] | cAMP AlphaScreen, HEK293 cells stably expressing the receptor: agonist EC50 [2] [nM] | cAMP AlphaScreen, HEK293 cells stably expressing the receptor: agonist EC50 [3] [nM] | IC50 [4] [nM] | IC50 [5] [nM]
1 | B1 | 1100 | 92 | 680 | – | –
2 | B2 | 540 | – | – | 6500 | 455
